Results on 28 sequences are retold here after the domain aggregation screens of Martell et al. (2025).
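Note: 20 min heating vs room temperature control held 20 min.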

This series in a line: soluble fraction after stress (log2 fold change); higher = more stays soluble; pooled small domains, quantitative proteomics. Conditions: stress: 75 degC.
For “HMAHYYVRNGYYYYQRRIPLDLRKFYSGANIKASLKTKDPAIAALFVAKFDRQYDAEFAQRRLNPD”, the “soluble fraction (log2)” value is -0.533. “HMAIELIDLIKNPETAPFSKLKYLKWMPEAEVTGFFNNLFQLNVTARETGDWSTVDKFLEDEGDRIAAQVA”: the “soluble fraction (log2)” value was -0.0284.

As for “HMAIEMSTITKRVTSTGEIRYRALLQIRREDVNYTESRTFSKKSLAEAWLKKREVELEANPELLHQ”, the “soluble fraction (log2)” value was -3.44. As for “HMAIGERIRFLRTLRRMTQKELGLAAGFPEKNASIRMAQYENGTRTPKAELTAVLAEILKVSPQALTV”, the “soluble fraction (log2)” value was -1.52. The value for “HMAIKNKNEQLEAIIKFADLRGEFKTADIEELLSIKSSRARLLISELVKIGKLESIGSNRNRRYHIK” was -0.974; that for “HMAIKTGAVTGHGVKVRKGPSTNEKAIHDVLYGSRLQILEEKNGFLKAKFEDGTTGWISKQFVTTTDKNLL” was -0.0233; that for “HMAIKWTPEIEDEVSNKLKEKWSPEQISAWLKKNKSIMISHQRIYQFIVEDKMSGGNLYRNLRQ” was -2.45. As for “HMAIPTTDSDKATDAQIKQIKLLGDIHPNLKLDAWLERNHVTWETLTREQAGNMMKAIKNKYGD”, the “soluble fraction (log2)” value is -0.105. The value for “HMAISEAERARLQTKIKERNKMARWINTNLNPTSKIRNINPAETVRKLMTQDDADSLERSLDAFMEA” was -0.0807; that for “HMAIVNVEVPSLVGKTEQEARNLLTEAGLKVNVVNDEDESKNDGVVLRQSKDAGTEVQEGTTITITVNKVS” was 0.0932; that for “HMAKDDFMSFVKAVWPEFIEGAHHRVIAQKFNDLATGKITRLIVNMPPRHTKSEFASYLLPAW” was 0.214. In the case of “HMAKDEYGLTSNQRAFADEYIRNKGNATQAYLFAYPHIKKENTAAVNASRLLRNAKVSKYIADRTKEIL”, the “soluble fraction (log2)” value was -0.103. For the sequence “HMAKIDSRKALIDQLTTTFTRAQLEELITKNELSTDARFFLSQWNAKGWIRKTAKNVYEKLR”, the “soluble fraction (log2)” value is -0.969. The value for “HMAKLTPDQQELRAIRIELQMSQPDFADAININVPRLSSYEYGRTAGVPTSIMEAARELKRSMSR” was -0.848; that for “HMAKRDEIEAELPRFVATITQELAASRDVLSMIEHYKQNSGPVFSAELDVLTADMRSGSYEAALTRFEARF” was 0.188.

As to “HMAKRKYKSFKDVAEFAQKLGIKSSTEWWAYVRGHEIPSDIPKDPSTYYKKEWTTWGDFLGTGYVSSA”, the “soluble fraction (log2)” value was -0.513. For “HMAKRTVPSVAEAIDNFRRQHRRMPSYAEMLPLLGVRSKSVVHFWINKLLENGLLEKDDKGYLTPGS”, the “soluble fraction (log2)” value was -0.134. For “HMAKSPYDVLGLKEDAPFDEVKKRYRELVKKYHPDILMGRGESEEMIEKSTRKLQEINEAYETIKQRA”, the “soluble fraction (log2)” value was determined as 0.119. In the case of “HMAKVDIPHEMVDQRIDEIVEEIKMNLESQNMSLDDYLKRMNQTEAQLRANYEATAAEQVRQGLV”, the “soluble fraction (log2)” value was determined as 0.858. For “HMALDSQEVGYNIEARGARPVVAQLGKAGQFSAVENSIRLGDDNWIALAPKLAGGGNAGFTAGIKSALS”, the “soluble fraction (log2)” value was -0.0514. Consider “HMALIGSNLRHLRNERKLSQQELADLIRVGRTTIANIEANLANPGHKTLLEIVKVFDITIDELLHTDLTK”, for which the “soluble fraction (log2)” value is -1.79. For “HMALKPKITIEELIRILNESKDLSDSETAKILNKDYTTAKYGKEFTSINVQGARYALDIATNTS”, the “soluble fraction (log2)” value is -0.145. For “HMALLSNEDIMFNLEFNRDLAVASNDGVSRDEFLRNKYGISEEEYNMLRARYGDGLNAARIKEYVGQRD”, the “soluble fraction (log2)” value was -0.182. The value for “HMALLSNTVDELHAGMRLDSYLFESGLYPSRSFAVKQIEAGKVFLNGDAVTKKTLVSNGDFIVYELEE” was -0.854; that for “HMALMLGGLIVYLNTTAPRDDIDLIELSKDTKAMAAFGNKLASPDYNGKQFALDWHELSRDEIMSKYFS” was -2.03; that for “HMALPDWLDPEAWAAWKRHRKAIRKPLTEDAVALSIRELAKLRDEGYGPTSVIENAILKGWQGLYPPK” was -0.364. The value for “HMALPGESVYVSILQSGSNRDQGVGYLDDGTMVVVDGAIKDIGKSIEVVINKSHQTVAGKMLFAKKVA” was -0.667; that for “HMALPQPDDDRQDTKKRILDMAEDLLLTRGFNAFSYQHISSELGMKNAAIHYHYPKKNDLGVAVIQRYRRR” was 0.128.
